In patent US20170137520A1 (Merck Sharp & Dohme, published 2017):

B1: F023700906 Nanobody, CTLA4 binder 11F01 (L11V,A14P,Q45R,A74S,K83R,V89L,M96P,Q108L)-FLAG3-HIS6 (VHH)
VHH: EVQLVESGGGVVQPGGSLRLSCAASGGTFSFYGMGWFRQAPGKEREFVADIRTSAGRTYYADSVKGRFTISRDNSKNTVYLQMNSLRPEDTALYYCAAEPSGISGWDYWGQGTLVTVSS
notes: also called F02370906; Nb F023700906
B2: F023701051 [11F01 (L11V,A14P,Q45R,N73Q,A74S,K83R,V89L,M96P,Q108L)-FLAG3-HIS6] (VHH, name in Kabat numbering)
VHH: EVQLVESGGGVVQPGGSLRLSCAASGGTFSFYGMGWFRQAPGKEREFVADIRTSAGRTYYADSVKGRFTISRDQSKNTVYLQMNSLRPEDTALYYCAAEPSGISGWDYWGQGTLVTVSS
notes: N73 is Kabat numbering; also called F02371051
B3: F023701061 [11F01 (L11V,A14P,Q45R,N73Y,A74S,K83R,V89L,M96P,Q108L)-FLAG3-HIS6] (VHH, name in Kabat numbering)
VHH: EVQLVESGGGVVQPGGSLRLSCAASGGTFSFYGMGWFRQAPGKEREFVADIRTSAGRTYYADSVKGRFTISRDYSKNTVYLQMNSLRPEDTALYYCAAEPSGISGWDYWGQGTLVTVSS
notes: N73 is Kabat numbering
B4: F023701054 [11F01 (L11V,A14P,Q45R,N73T,A74S,K83R,V89L,M96P,Q108L)-FLAG3-HIS6] (VHH, name in Kabat numbering)
VHH: EVQLVESGGGVVQPGGSLRLSCAASGGTFSFYGMGWFRQAPGKEREFVADIRTSAGRTYYADSVKGRFTISRDTSKNTVYLQMNSLRPEDTALYYCAAEPSGISGWDYWGQGTLVTVSS
notes: N73 is Kabat numbering

Key:
[1] = target: T1, human CTLA-4 expressed on cell surface (hCTLA4-overexpressing CHO-K1 cells) (human, UniProt P16410 36-223); test: competition flow cytometry (cFACS) on CHO-K1 hCTLA4 cells against a fixed concentration (EC30) of hCD86-hFc; bound ligand detected via its human IgG Fc; MedianFI (PE)
T1 construct: The construct expressed in the cells is not described further; also called huCTLA-4+ CHO-K cells; CTLA-4+ CHO-K1 cells
T1 sequence: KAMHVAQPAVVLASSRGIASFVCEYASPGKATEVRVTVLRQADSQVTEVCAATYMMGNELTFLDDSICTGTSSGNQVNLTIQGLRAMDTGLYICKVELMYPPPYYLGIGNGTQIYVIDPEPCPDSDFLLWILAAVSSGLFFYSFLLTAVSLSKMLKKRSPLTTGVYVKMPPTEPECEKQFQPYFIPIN
Source text: (§1) F023700906, a building block of F023700925, as well as F023701051, F023701054 and F023701061 blocked binding of human CTLA-4 to its ligands CD80 and CD86. Flow cytometry analysis of discovery batches of N73X variants (filled squares, filled triangles, filled triangles upside-down) of Nb F023700906 (filled circles) with fixed concentrations (EC30) of (A) hCD80-hFc or (B) hCD86-hFc on hCTLA4-overexpressing CHO-K1 cells. The ligands were detected via the human IgG Fc fusion protein. The flow cytometry data generated in this experiment are in FIG. 10 (A-B).

[2] = target: T1, human CTLA-4 expressed on cell surface …; test: competition flow cytometry (cFACS) on CHO-K1 hCTLA4 cells against a fixed concentration (EC30) of hCD80-hFc; MedianFI (PE)
Human CTLA-4-Fc = target: T2, Human CTLA-4-Fc (human, UniProt P16410 37-162, limits assumed); test: kinetic binding analysis on CTLA4-hFc; method not stated
T2 construct: also called human CTLA4-hFc; CTLA-4-Fc fusion molecule from human; not shown: human Fc (hFc)
T2 sequence: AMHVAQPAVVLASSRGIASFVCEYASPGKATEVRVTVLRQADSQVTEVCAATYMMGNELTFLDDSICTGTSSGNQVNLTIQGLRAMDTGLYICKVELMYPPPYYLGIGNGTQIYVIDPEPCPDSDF
Experimental: (§2) On-rate, off-rate and affinity were determined using human and cynomolgus monkey CTLA4-hFc (Table below).

Cynomolgus CTLA-4-Fc = target: T3, Cynomolgus CTLA-4-Fc (cynomolgus monkey, UniProt G7PL88 37-162); test: as above
T3 construct: also called cynomolgus monkey CTLA4-hFc; not shown: human Fc (hFc)
T3 sequence: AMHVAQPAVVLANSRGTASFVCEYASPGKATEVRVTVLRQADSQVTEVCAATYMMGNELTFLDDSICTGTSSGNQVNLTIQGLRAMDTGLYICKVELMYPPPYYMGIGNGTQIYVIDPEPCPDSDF
Experimental: as §2

[3] = target: T1, human CTLA-4 expressed on cell surface …; test: competition flow cytometry (cFACS) on CHO-K1 hCTLA4 cells against a fixed concentration (EC30) of hCD80-hFc; bound ligand detected via its human IgG Fc; MedianFI (PE)
Source text: as §1

[4] = target: T1, human CTLA-4 expressed on cell surface …; test: competition flow cytometry (cFACS) on CHO-K1 hCTLA4 cells against a fixed concentration (EC30) of hCD86-hFc; MedianFI (PE)

Row | Binder | IC50 (read off the curve) [1] [nM] | IC50 (read off the curve) [2] [nM] | Kd (Human CTLA-4-Fc) [nM] | koff (Human CTLA-4-Fc) [s⁻¹] | kon (Human CTLA-4-Fc) [M⁻¹ s⁻¹] | Kd (Cynomolgus CTLA-4-Fc) [nM] | koff (Cynomolgus CTLA-4-Fc) [s⁻¹] | kon (Cynomolgus CTLA-4-Fc) [M⁻¹ s⁻¹] | IC50 (read off the curve) [3] [nM] | IC50 (read off the curve) [4] [nM]
1 | B1 | ~2 | ~10 | 1.2 | 0.0059 | 4.8e+06 | 1.2 | 0.0057 | 4.7e+06 | ~10 | ~2
2 | B2 | ~2 | ~10 |  |  |  |  |  |  | ~10 | ~2
3 | B3 | ~2 | ~10 |  |  |  |  |  |  | ~10 | ~2
4 | B4 | ~2 | ~10 |  |  |  |  |  |  | ~10 | ~2
